# Results from EP2487185A1 (Clinuvel Pharmaceuticals Limited, dated 2012).
# Non-standard residues stand in square brackets, D forms with d. Nle = CCCC[C@H](N)C(=O)O
# Molecular target: Melanocortin-1 Receptor (human, UniProt Q01726 1-317)
# Assay: cell-based or functional assay
# Chain of Melanocortin-1 Receptor (Q01726 whole entry): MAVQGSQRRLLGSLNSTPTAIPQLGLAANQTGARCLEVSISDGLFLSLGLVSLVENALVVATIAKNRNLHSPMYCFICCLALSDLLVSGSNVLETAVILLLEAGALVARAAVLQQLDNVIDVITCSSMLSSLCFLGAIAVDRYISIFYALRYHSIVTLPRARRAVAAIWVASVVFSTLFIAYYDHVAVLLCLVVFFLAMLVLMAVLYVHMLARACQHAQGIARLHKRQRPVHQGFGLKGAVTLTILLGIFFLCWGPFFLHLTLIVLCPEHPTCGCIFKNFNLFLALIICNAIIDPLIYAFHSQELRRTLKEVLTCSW
binder,measurement,value
"Ac-[Nle]EH[dF]RW-NH2 (SMILES CCCC[C@H](NC(C)=O)C(=O)N[C@@H](CCC(=O)O)C(=O)N[C@@H](Cc1c[nH]cn1)C(=O)N[C@H](Cc1ccccc1)C(=O)N[C@@H](CCCNC(=N)N)C(=O)N[C@@H](Cc1c[nH]c2ccccc12)C(N)=O) [CUV9900, Ac-Nle-Glu-His-D-Phe-Arg-Trp-NH2 (SEQ ID NO: 1) variation]","tyrosinase activity, concentration giving maximal stimulation, melanocyte strain 102b, 6 days",0.1 nM
